These results are taken from patent publication EP2452948B1.

This experiment has as its target Hsp90α in MCF-7 cells (Thr90 phosphorylated, intracellular) (human). The experiment in a line: cell-based or functional assay.

In turn, “human PP5 in MCF-7 cells (overexpressed from pcDNA3.1/Myc-His(-), or the endogenous protein knocked down by siRNA) (enzyme)” gave a Thr90 phosphorylated Hsp90α level in MCF-7 cells on overexpression of human PP5 (of the control) of 0.55 and a Thr90 phosphorylated Hsp90α level in MCF-7 cells on siRNA knock-down of human PP5 (of the control) of 1.58.
